{"source": "patent US20220251194A1", "about": "(Merck Sharp & Dohme, published 2022)", "binders": {"B1": {"name": "Fab001 (humanized 08A Fab with S61N glycosylation site correction) (Fab, V domains shown)", "VH": "EVQLVQSGAEVKKPGASVKVSCKASGYTFTSYYLYWVRQAPGQGLEWIGGVNPSNGGTNFNEKFKSRVTLTVDTSISTAYMELSRLRSDDTAVYYCTRRDSNYDGGFDYWGQGTTVTVSS", "VL": "DIVMTQTPLSLSVTPGQPASISCRASKSVSTSGFSYLHWYLQKPGQPPQLLIFLASNLESGVPDRFSGSGSGTDFTLKISRVEAEDVGVYYCQHSWELPLTFGQGTKLEIKR", "notes": "Fab with IgG4 CH1 and kappa light chain"}, "B2": {"name": "Fab 004 (Fab, V domains shown)", "VH": "EVQLVQSGAEVKKPGASVKVSCKASGYTFTSYYLYWVRQAPGQGLEWIGGVNPSNGGTNFNEKFKSRVTLTVDTSISTAYMELSRLRSDDTAVYYCTRRLSHYDGGFDYWGQGTTVTVSS", "VL": "DIVMTQTPLSLSVTPGQPASISCRASKSVSTSGFSYLHWYLQKPGQPPQLLIFLASNLESGVPDRFSGSGSGTDFTLKISRVEAEDVGVYYCQHSWELPLTFGQGTKLEIKR", "notes": "also called 3G9; H3G9"}, "B3": {"name": "Anti-PD-1/LAG-3/TIGIT trispecific antibody (TsAb) (Lot 83BCN or 51AVW) (other)", "heavy 1": "EVQLVQSGAEVKKPGASVKVSCKASGYTFTSYYLYWVRQAPGQGLEWIGGVNPSNAGTNFNEKFKSRVTLTVDTSISTAYMELSRLRSDDTAVYYCTRRLSHYDGGFDYWGQGTTVTVSSASTKGPSVFPLAPSSKSTSGGTAALGCEVTDYFPEPVTVSWNSGALTSGVHTFPAVLESSGLYSLLSVVTVPSSSLGTQTYICNVNHKPSNTKVDKKVEPKSCDKTHTCPPCPAPEAAGGPSVFLFPPKPKDTLMISRTPEVTCVVVSVSHEDPEVKFNWYVDGVEVHNAKTKPREEQYNSTYRVVSVLTVLHQDWLNGKEYKCKVSNKALPAPIEKTISKAKGQPREPQVYVYPPSRDELTKNQVSLTCLVKGFYPSDIAVEWESNGQPENNYKTTPPVLDSDGSFALVSKLTVDKSRWQQGNVFSCSVMHEALHNHYTQKSLSLSPGGGGSGGGSGGGSGGGSDIQMTQSPSSLSASVGDRVTITCRASEHIYSYLSWYQQKPGKVPKLLIYNAKTLAEGVPSRFSGSGSGTDFTLTISSLQPEDVATYYCQHHFGSPLTFGQGTRLEIKGGSSRSSSSGGGGSGGGGSGSEVQLVQSGAEVKKPGSSVKVSCKASGYTFSSYVMHWVRQAPGQGLEWIGYIDPYNDGAKYAQKFQGRVTLTSDKSTSTAYMELSSLRSEDTAVYYCARGGPYGWYFDVWGQGTTVTVSS", "light 1": "DIVMTQTPLSLSVTPGQPASISCRASKSVSTSGFSYLHWYLQKPGQPPQLLIFLSKYRSSGVPDRFSGSGSGTDFTLKISRVEAEDVGVYYCSQAYHLPLTFGQGTKLEIKRTVAAPSVFIFPPSDERLKSGTASVVCLLNNFYPREAKVQWKVDNALQSGNSQESVTEQDSKDSTYSLSSRLTLSKADYEKHKVYACEVTHQGLSSPVTKSFNRGEC", "heavy 2": "QMQLVQSGPEVKKPGTSVKVSCKASGYTFTDYNVDWVRQARGQRLEWIGDINPNDGGTIYAQKFQERVTITVDKSTSTAYMELSSLRSEDTAVYYCARNYRWFGAMDHWGQGTTVTVSSASTKGPSVFPLAPSSKSTSGGTAALGCLVKDYFPEPVTVSWNSGALTSGVHTFPAVLQSSGLYKLSSVVTVPSSSLGTQTYICNVNHKPSNTKVDKKVEPKSCDKTHTCPPCPAPEAAGGPSVFLFPPKPKDTLMISRTPEVTCVVVSVSHEDPEVKFNWYVDGVEVHNAKTKPREEQYNSTYRVVSVLTVLHQDWLNGKEYKCKVSNKALPAPIEKTISKAKGQPREPQVYVLPPSRDELTKNQVSLLCLVKGFYPSDIAVEWESNGQPENNYLTWPPVLDSDGSFFLYSKLTVDKSRWQQGNVFSCSVMHEALHNHYTQKSLSLSPGGGGSGGGSGGGSGGGSDIQMTQSPSSLSASVGDRVTITCRASEHIYSYLSWYQQKPGKVPKLLIYNAKTLAEGVPSRFSGSGSGTDFTLTISSLQPEDVATYYCQHHFGSPLTFGQGTRLEIKGGSSRSSSSGGGGSGGGGSGSEVQLVQSGAEVKKPGSSVKVSCKASGYTFSSYVMHWVRQAPGQGLEWIGYIDPYNDGAKYAQKFQGRVTLTSDKSTSTAYMELSSLRSEDTAVYYCARGGPYGWYFDVWGQGTTVTVSS", "light 2": "DIVMTQTPLSLSVTPGQPASISCKASQSLDYEGDSDMNWYLQKPGQPPQLLIYGASNLESGVPDRFSGSGSGTDFTLKISRVEAEDVGVYYCQQSTEDPRTFGGGTKVEIKRTVAAPSVFIFPPSDEELKSGTATVVCLLNNFYPREAKVQWKVDNALQSGNSQESVTEQDSKDSTYSLSSYLELSKADYEKHKVYACEVTHQGLSSPVTKSFNRGEC", "notes": "Trispecific heterodimeric IgG1 / kappa; It has one site for PD1, one for LAG3 and two for TIGIT; also called Hz x Hu [PD-1]; [TIGIT]; [LAG3]; TsAb; Anti-human PD1/TIGIT/LAG3 TsAb"}}, "key": {"[1]": {"target": "T1, recombinant human or cyno PD-1 (immobilized onto CM5 chip, Example 1) (human or cyno ( which was …, UniProt Q15116 25-167, limits assumed))", "T1 construct": "also called antigen", "T1 sequence (Q15116 25-167 limits assumed)": "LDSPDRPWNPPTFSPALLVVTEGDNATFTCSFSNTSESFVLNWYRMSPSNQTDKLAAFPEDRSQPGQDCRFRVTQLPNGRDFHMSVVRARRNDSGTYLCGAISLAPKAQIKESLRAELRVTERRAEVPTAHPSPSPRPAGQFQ", "assay": "SPR (Biacore T200), PD-1 immobilized on CM5 chip, Fab as analyte; lower end of the printed range 2.80-2.90", "procedure": "(§1) Immobilization of recombinant human or cyno PD-1 onto CM5 chip: A CM5 sensor chip was activated in FC2 by 7-min. injection (10 μl/min.) of freshly prepared 1:1 50 mM NHS: 200 mM EDC. PD-1 at a concentration of 0.2 μg/ml in 10 mM sodium acetate buffer pH 5.0 was injected onto the activated chip at 5 μl/min. (HBS-EP running buffer: 10 mM HEPES, 150 mM NaCl, 3.4 mM EDTA, 0.005% surfactant P20, pH 7.4) for 120 seconds. The remaining active coupling sites were blocked with 7 min. injection of 1M ethanolamine at 10 μl/min.\n(§2) Binding kinetics measurement: Various concentrations of the Fabs were injected with a flow rate of 30 μl/min for 180 seconds(s) during the association phase. The dissociation of bound antibody was monitored by flowing HBS-EP buffer over the chip surface for 600 seconds. At the end of each cycle, the sensor surfaces were regenerated by injecting regeneration buffer (10 mM glycine buffer with pH 1.7) for 180 seconds. After sensograms were corrected for signals from a reference flow, kinetics were calculated with BIACORE T 200 evaluation software ver.1.0 (Biacore, GE, USA)."}, "[2]": {"target": "T1, recombinant human or cyno PD-1 …", "assay": "SPR (Biacore), Fab against PD-1", "procedure": "as §1, §2"}, "[3]": {"target": "T2, LAG3-His (66AKO), [VEGF leader]-LAG3_H-[His9G] (human, UniProt P18627 23-450)", "T2 construct": "Expressed with a VEGF leader", "T2 sequence (looked up)": "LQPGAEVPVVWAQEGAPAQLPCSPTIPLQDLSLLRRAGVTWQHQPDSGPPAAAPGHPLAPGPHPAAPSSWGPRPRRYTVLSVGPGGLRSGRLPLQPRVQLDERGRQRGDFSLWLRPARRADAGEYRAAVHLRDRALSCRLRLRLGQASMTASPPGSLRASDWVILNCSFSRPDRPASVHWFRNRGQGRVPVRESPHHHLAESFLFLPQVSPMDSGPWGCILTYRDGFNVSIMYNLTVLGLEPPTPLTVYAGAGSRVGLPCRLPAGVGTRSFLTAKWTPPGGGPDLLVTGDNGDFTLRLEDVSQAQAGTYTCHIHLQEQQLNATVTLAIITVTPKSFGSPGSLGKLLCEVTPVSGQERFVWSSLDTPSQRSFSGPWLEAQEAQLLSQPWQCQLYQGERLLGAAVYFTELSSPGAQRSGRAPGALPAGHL", "assay": "SPR sequential antigen injections on captured TsAb; this antigen injected 1st", "procedure": "(§3) Sample pre-mixes were injected to cover all six sequential combinations of the three antigens. Injection of pre-mixes in appropriate order (e.g., pre-mix 1->4->7, premix 2->6->7, premix 3->5->7) helped to maintain antigen activities from first and second injections and near saturation of the occupied sites in case of notable dissociation. On a Biacore T200, the first two injections were made using the dual inject mode and the third was made using normal injection mode (the difference is extra time between second and third injections). It is possible that antigens themselves could self-associate or interact with one another in the pre-mixes but for simplicity of interpretation, we assumed that to be unlikely or insignificant.\n(§4) Each subsequent upward shift in the signal upon premix injection indicates binding of an antigen to an unoccupied site. Typical % BC for a fully occupied site can range from ˜70% to ˜120% due to matrix effects, MW variations (e.g., glycosylation), fast dissociation, nonspecific binding, reagent quality (e.g., aggregation), etc. The % BC indicated in the figures show good overall binding capacity for the three antigens with somewhat higher % BC for the first binder."}, "[4]": {"target": "T3, Human PD1 (50AFR), [VEGF leader]-Sino-Bio-PD-1_H-[His9G] (human, UniProt Q15116 25-167)", "T3 construct": "Expressed with a VEGF leader; also called PD-1-His (50AFR)", "T3 sequence (Q15116 25-167)": "as the sequence (Q15116 25-167 limits assumed) above", "assay": "SPR sequential antigen injections on captured TsAb; this antigen injected 2nd", "procedure": "as §3, §4"}, "[5]": {"target": "T4, TIGIT-His (87AGX), [SLAM Leader]-TIGIT_H-[His9G] (human, UniProt Q495A1 22-141)", "T4 construct": "Expressed with a SLAM leader", "T4 sequence (looked up)": "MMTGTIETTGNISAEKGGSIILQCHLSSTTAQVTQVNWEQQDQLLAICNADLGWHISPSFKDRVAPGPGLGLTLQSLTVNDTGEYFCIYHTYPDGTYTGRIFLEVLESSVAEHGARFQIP", "assay": "SPR sequential antigen injections on captured TsAb; this antigen injected 2nd", "procedure": "as §3, §4"}, "[6]": {"target": "T3, Human PD1 (50AFR), [VEGF …", "assay": "SPR (Biacore T200 or 4000), antibody captured via anti-human Fc, antigen as analyte", "procedure": "(§5) Binding affinities were measured using a Biacore T200 or Biacore 4000 biosensor (GE Healthcare, Chicago, Ill.). The following running buffer, 10 mM HEPES, 150 mM NaCl, 0.05% v/v Surfactant P20, 3 mM EDTA (GE Healthcare, BR100669, Chicago, Ill.), was used for immobilization, sample dilution and data collection. All experiments were performed at 25° C. Antigen binding to antibodies captured via an anti-human Fc antibody was measured using a Series S Sensor Chip CM5 (GE Healthcare, 29149603, Chicago, Ill.). An anti-human Fc antibody was immobilized on all surfaces of the chip according to the instructions in the Human Antibody Capture Kit (GE Healthcare, BR100839, Chicago, Ill.) and the Amine Coupling Kit (GE Healthcare, BR100633, Chicago, Ill.). […] After the antigen injections the dissociation of the interaction was monitored for 15 minutes. Between binding cycles the antibody and antigen were removed from the chip with a 30 second injection of 3 M MgCl₂.\n(§6) The data were processed and fit using Biacore T200 Evaluation Software version 2.0 or Biacore 4000 Evaluation Software version 1.1 (GE Healthcare, Chicago, Ill.). The data were “double referenced” by subtracting the response from a negative control flowcell and subtracting the response from a buffer injection or the average response from two buffer injections. The data were then fit with the ‘1:1 Binding’ model to determine the association rate constant, kₐ (M⁻¹s⁻¹, where “M” equals molar and “s” equals seconds) and the dissociation rate constant, kd (s⁻¹). These rate constants were used to calculate the equilibrium dissociation constant, KD (M)=[…]."}, "[7]": {"target": "T5, human LAG-3 (60AXE) (human, UniProt P18627 23-450, limits assumed)", "T5 construct": "Lot 60AXE is not described further", "T5 sequence (looked up)": "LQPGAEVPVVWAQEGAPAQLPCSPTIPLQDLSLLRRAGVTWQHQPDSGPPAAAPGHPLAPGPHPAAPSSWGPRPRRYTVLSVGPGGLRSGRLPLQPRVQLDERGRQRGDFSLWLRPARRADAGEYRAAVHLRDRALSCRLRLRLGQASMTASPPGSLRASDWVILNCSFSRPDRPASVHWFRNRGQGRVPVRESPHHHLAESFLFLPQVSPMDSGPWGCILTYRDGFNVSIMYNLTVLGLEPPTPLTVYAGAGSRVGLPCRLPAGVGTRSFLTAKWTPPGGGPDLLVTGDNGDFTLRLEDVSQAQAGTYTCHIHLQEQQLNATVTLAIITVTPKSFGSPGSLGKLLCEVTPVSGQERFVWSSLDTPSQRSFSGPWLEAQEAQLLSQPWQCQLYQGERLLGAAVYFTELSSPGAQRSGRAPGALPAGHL", "assay": "SPR (Biacore T200 or 4000), antibody captured via anti-human Fc, antigen as analyte", "procedure": "as §5, §6"}, "[8]": {"target": "T6, human TIGIT (94AGV) (human, UniProt Q495A1 22-141, limits assumed)", "T6 construct": "Lot 94AGV is not described further", "T6 sequence (looked up)": "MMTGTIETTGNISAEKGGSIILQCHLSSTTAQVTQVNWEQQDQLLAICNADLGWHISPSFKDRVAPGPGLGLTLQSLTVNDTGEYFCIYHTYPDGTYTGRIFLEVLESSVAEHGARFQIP", "assay": "SPR (Biacore T200 or 4000), antibody captured via anti-human Fc, antigen as analyte", "procedure": "as §5, §6"}}}
{"binder": "B1", "values": [{"measurement": "Kd", "setting": "[1]", "result": "280 to 290", "unit": "pM"}]}
{"binder": "B2", "values": [{"measurement": "fold improvement in KD over 08A", "setting": "[2]", "result": 2, "unit": "fold"}]}
{"binder": "B3", "values": [{"measurement": "% BC (estimated % binding capacity)", "setting": "[3]", "result": 102, "unit": "%"}, {"measurement": "% BC (estimated % binding capacity)", "setting": "[4]", "result": 74, "unit": "%"}, {"measurement": "% BC (estimated % binding capacity)", "setting": "[5]", "result": 90, "unit": "%"}, {"measurement": "Kd", "setting": "[6]", "result": 150, "unit": "pM"}, {"measurement": "Kd", "setting": "[7]", "result": 1.5, "unit": "pM"}, {"measurement": "Kd", "setting": "[8]", "result": 640, "unit": "pM"}]}
